Values joined by “and” are separate entries in the source; they are usually repeats but may differ in a detail not shown here. Equal values may be shown once. Read-outs that look alike come from different tables or passages of the source. Ends that are not written are not given here.

This test deals with T1, APC/C^Cdc20 (Saccharomyces cerevisiae, UniProt P16522+P53886).
T1 construct: constructed within full-length Cdc20 by site-directed mutagenesis for analysis in vitro in the APC/C^Cdc20 assay; The APC/C was purified for enzyme assays from 1 mL of TAP-tagged Cdc16 yeast extract (SCSY51); made in house; host or cells: Cdc20: in vitro transcription/translation in rabbit reticulocyte lysate, used unpurified; APC/C: S. cerevisiae strain SCSY51 (Cdc16-TAP) extract, captured on IgG magnetic beads
The test is described as follows: biochemical. The class given is biochemical. The note with it: for inhibition of APC/C^Cdc20 activity (in words): 220 μM peptide, time course 0-60 minutes, vs buffer only, n = 3; for ubiquitinated Pds1 species at 60 minutes (in words): inhibitor at about 4-times the IC50, S2 Fig C. The protocol:
Full-length, radio-labeled protein purifications were preformed as previously described. ^35S-Pds1 was prepared in a 500 μL IVT/T (In Vitro Transcription/Translation) reaction (Promega, USA), which contained 400 μL rabbit reticulocyte lysate, 20 μL of L-^35S-methionine (PerkinElmer, USA), 10 μg of plasmid DNA, and the remaining volume as nuclease-free ddH2O as recommended by the manufacturer. The reaction mixture was incubated for 2 hours at room temperature and gently mixed every 30 minutes. The reaction was added to pre-equilibrated IgG Sepharose beads (GE Healthcare, USA) in Bio-spin disposable chromatography columns (Bio-Rad, USA) for binding for 2 hours at room temperature. To ensure efficient binding, the beads were re-suspended several times every 30 minutes. After binding, the beads were washed with 5 mL wash buffer, containing 200 mM 4-(2-hydroxyethyl)-1-piperazineethanesulfonic acid (HEPES) at pH 8.0, 150 mM NaCl, 10% (v/v) glycerol, and 1 mM dithiothreitol (DTT). The ^35S-Pds1 was cleaved from the beads using TEV (Tobacco Etch Virus) protease in 1x TEV buffer (Invitrogen, USA) for 2 hours at room temperature, and the mixture was re-suspended several times every 30 minutes to promote efficient cleavage. The elution was collected and concentrated by employing an Amicon Ultra filter column (Millipore, Ireland). The concentrated ^35S-Pds1 was collected in a new tube, and stored at -20 °C.
The production of Cdc20 or Cdh1 was prepared by IVT/T reactions, where 16 μL of rabbit reticulocyte lysate, 20 μM L-methionine, 0.4 μg of plasmid DNA, and a volume of nuclease-free ddH2O for a total volume of 20 μL. This freshly synthesized Cdc20 or Cdh1 protein was used directly in all APC/C assays after a 1-hour synthesis reaction at room temperature. The APC/C was purified for enzyme assays from 1 mL of TAP-tagged Cdc16 yeast extract (SCSY51) where extract was mixed with 50 μL 50:50 slurry magnetic beads (Invitrogen, Norway) for 2 hours at 4 °C. After incubation, the beads were washed with 3 mL APC/C wash buffer (200 mM of HEPES, 150 mM of NaCl and 10% (v/v) of glycerol). APC/C bound to IgG magnetic beads was used directly in the enzyme assays.
APC/C assays were performed by adding the reaction contents in following order: 4.3 μL of QAH buffer, 20 μL of rabbit reticulocyte lysate containing Cdc20 or Cdh1 with or without an additional volume of recombinant checkpoint protein(s) or inhibitor peptides, 2.4 μL ubiquitin aldehyde (Boston Biochem, USA), APC/C, 16 μL pre-charged E1/E2/ATP/ubiquitin mix, and 13.3 μL of ^35S-Pds1 with QAH buffer (20 mM HEPES at pH 8.0, 100 mM NaCl, and 1 mM MgCl2). The E1/E2/ATP/ubiquitin mix were pre-charged by mixing 1 μL of E1 (Boston Biochem, USA), 1 μL of E2 (Boston Biochem, USA), 14.4 μL of ATP, 14.4 μL of […] (Boston Biochem, USA), and 17.2 μL of QAH buffer and incubated for 15 minutes at room temperature. Approximately 15 μL of samples were taken out at each time point, and the reaction was stopped by the addition of 2x protein sample buffer (125 mM Tris-HCl pH 6.8, 4% SDS, 20% glycerol, and 0.002% bromophenol blue, with 10% (final v/v) 2-mercaptoethanol added in fresh directly before use).
For inhibitor titration and time-course experiments, recombinant Bub3, Mad2, Mad3, and the Mad3-Bub3 complex were expressed and purified as previously described. […] For inhibition of APC/C the co-factor Cdc20 or Cdh1 was made fresh by IVT/T, and pure recombinant checkpoint proteins or inhibitor peptides were added to the IVT/T mixture and incubated for an additional hour at room temperature. In titrations, a dilution series of the checkpoint protein(s) were made before incubation with the Cdc20 co-factor. SDS-PAGE was performed using stand protocols (BioRad, USA).

Setting [1] is: MCC subunits, 4-parameter Hill fit, ± sd.
The mark [2] stands for this setting: MCC subunits, titration, 4-parameter Hill fit, ± sd from three independent titrations, 35S-Pds1 substrate, read-out: IC50.

As for “PL29: PL29 (Cdc20 167–196) that does not contain the KILR-motif (LPPPNASPISHLRAQTKIVFKQNVAEACGL; UniProt P26309 167-196, looked up, fragment)”, where the note is “35S-Pds1 substrate”, the “inhibition of APC/C^Cdc20 activity (in words)” value (“inhibition” below) is listed as “displayed the ability to inhibit APC/C^Cdc20 activity”.
For “DS17: DS17 (Cdc20 197–212) peptide derived from the N-terminal portion of the DQ36 peptide (DMNKRILQYMPEPPKC; UniProt P26309 197-212, looked up, fragment)”, the “inhibition” value (35S-Pds1 substrate) is “no significant inhibition was observed”.
Turning to “C-box1: C-box containing peptide C-box1 (130–167) (TTSREVDEQFTVAADRYIPILQGASQNKVDPETLHEAL; UniProt P26309 130-167, looked up, fragment)”, the “inhibition” value (35S-Pds1 substrate) is recorded as “A significant level of APC/C^Cdc20 inhibition was observed only in the presence of the C-box2 peptide”.
Consider “AV16: C-box containing peptide AV16 (Cdc20 143–158) (ADRYIPILQGASQNKV; UniProt P26309 143-158, looked up, fragment)”, for which the “inhibition” value (35S-Pds1 substrate) is recorded as “A significant level of APC/C^Cdc20 inhibition was observed only in the presence of the C-box2 peptide”.
By IC50 is commonly meant the midpoint of a concentration-inhibition curve. On to “DMNKRILQYMPEPPKCSSLRQKSYIMKKRTHYSYQQ [DQ36]”, for which the IC50 is approximately 150 µM. In addition, the “IC50 weaker than that of PQ65 (times)” value (ratio of IC50 relative to PQ65) is listed as “about 3 times”.
Consider “MKVLDDWFSRKFSKAVHGNNHGTISLSTLSYIRVHKLVK [Tyc1]”, for which the IC50 was approximately 50 µM.
Turning to “EV25: C-box containing peptide EV25 (Cdc20 134–158) (EVDEQFTVAADRYIPILQGASQNKV; UniProt P26309 134-158, looked up, fragment)”, under “35S-Pds1 substrate”, the “inhibition” value was “A significant level of APC/C^Cdc20 inhibition was observed only in the presence of the C-box2 peptide”.

B1: Mad2: pure recombinant MCC component Mad2 (protein)
chain: MSQSISLKGSTRTVTEFFEYSINSILYQRGVYPAEDFVTVKKYDLTLLKTHDDELKDYIRKILLQVHRWLLGGKCNQLVLCIVDKDEGEVVERWSFNVQHISGNSNGQDDVVDLNTTQSQIRALIRQITSSVTFLPELTKEGGYTFTVLAYTDADAKVPLEWADSNSKEIPDGEVVQFKTFSTNDHKVGAQVSYKY
One may read the Hill coefficient as a measure of the steepness of the concentration-response curve. Regarding B1, the “ubiquitinated Pds1 species at 60 minutes (in words)” value was “the small amount of Pds1 that is ubiquitinated appears to be fully poly-ubiquitinated”. For the same molecule, for the setting “35S-Pds1 substrate”, the “inhibition” value was “yields a high level of inhibition”. Under setting [1], the Hill coefficient was 2.4 ± 0.3 and 2.4. Moreover, the IC50 under setting [2] amounted to 2.3 ± 0.5 µM.

B2: Mad3: pure recombinant MCC component Mad3 (protein, UniProt P47074 1-515, looked up)
Spindle assembly checkpoint …: MKAYAKKRISYMPSSPSQNVINFEEIETQKENILPLKEGRSAAALSKAIHQPLVEINQVKSSFEQRLIDELPALSDPITLYLEYIKWLNNAYPQGGNSKQSGMLTLLERCLSHLKDLERYRNDVRFLKIWFWYIELFTRNSFMESRDIFMYMLRNGIGSELASFYEEFTNLLIQKEKFQYAVKILQLGIKNKARPNKVLEDRLNHLLRELGENNIQLGNEISMDSLESTVLGKTRSEFVNRLELANQNGTSSDVNLTKNNVFVDGEESDVELFETPNRGVYRDGWENFDLKAERNKENNLRISLLEANTNLGELKQHEMLSQKKRPYDEKLPIFRDSIGRSDPVYQMINTKDQKPEKIDCNFKLIYCEDEESKGGRLEFSLEEVLAISRNVYKRVRTNRKHPREANLGQEESANQKEAEAQSKRPKISRKALVSKSLTPSNQGRMFSGEEYINCPMTPKGRSTETSDIISAVKPRQLTPILEMRESNSFSQSKNSEIISDDDKSSSSFISYPPQR
On to B2, for which the Hill coefficient under setting [1] was 5.0 ± 0.9 and 5.0. Moreover, the IC50 under setting [2] is 0.24 ± 0.01 µM.

B3: Bub3: pure recombinant MCC component Bub3 (protein, UniProt P26449 1-341, looked up)
Spindle assembly checkpoint …: MQIVQIEQAPKDYISDIKIIPSKSLLLITSWDGSLTVYKFDIQAKNVDLLQSLRYKHPLLCCNFIDNTDLQIYVGTVQGEILKVDLIGSPSFQALTNNEANLGICRICKYGDDKLIAASWDGLIEVIDPRNYGDGVIAVKNLNSNNTKVKNKIFTMDTNSSRLIVGMNNSQVQWFRLPLCEDDNGTIEESGLKYQIRDVALLPKEQEGYACSSIDGRVAVEFFDDQGDDYNSSKRFAFRCHRLNLKDTNLAYPVNSIEFSPRHKFLYTAGSDGIISCWNLQTRKKIKNFAKFNEDSVVKIACSDNILCLATSDDTFKTNAAIDQTIELNASSIYIIFDYEN
For B3, under setting [1], the Hill coefficient was 2.2 ± 0.4 and 2.2. Under setting [2], the half-maximal inhibitory concentration (IC50) amounted to 8.7 ± 2.4 µM.

B4: Mad3-Bub3 complex: recombinant Mad3-Bub3 complex (protein, UniProt P47074 1-515; P26449 1-341, looked up)
Spindle assembly checkpoint … 1: MKAYAKKRISYMPSSPSQNVINFEEIETQKENILPLKEGRSAAALSKAIHQPLVEINQVKSSFEQRLIDELPALSDPITLYLEYIKWLNNAYPQGGNSKQSGMLTLLERCLSHLKDLERYRNDVRFLKIWFWYIELFTRNSFMESRDIFMYMLRNGIGSELASFYEEFTNLLIQKEKFQYAVKILQLGIKNKARPNKVLEDRLNHLLRELGENNIQLGNEISMDSLESTVLGKTRSEFVNRLELANQNGTSSDVNLTKNNVFVDGEESDVELFETPNRGVYRDGWENFDLKAERNKENNLRISLLEANTNLGELKQHEMLSQKKRPYDEKLPIFRDSIGRSDPVYQMINTKDQKPEKIDCNFKLIYCEDEESKGGRLEFSLEEVLAISRNVYKRVRTNRKHPREANLGQEESANQKEAEAQSKRPKISRKALVSKSLTPSNQGRMFSGEEYINCPMTPKGRSTETSDIISAVKPRQLTPILEMRESNSFSQSKNSEIISDDDKSSSSFISYPPQR
Spindle assembly checkpoint … 2: MQIVQIEQAPKDYISDIKIIPSKSLLLITSWDGSLTVYKFDIQAKNVDLLQSLRYKHPLLCCNFIDNTDLQIYVGTVQGEILKVDLIGSPSFQALTNNEANLGICRICKYGDDKLIAASWDGLIEVIDPRNYGDGVIAVKNLNSNNTKVKNKIFTMDTNSSRLIVGMNNSQVQWFRLPLCEDDNGTIEESGLKYQIRDVALLPKEQEGYACSSIDGRVAVEFFDDQGDDYNSSKRFAFRCHRLNLKDTNLAYPVNSIEFSPRHKFLYTAGSDGIISCWNLQTRKKIKNFAKFNEDSVVKIACSDNILCLATSDDTFKTNAAIDQTIELNASSIYIIFDYEN
For B4, the “ubiquitinated Pds1 species at 60 minutes (in words)” value is recorded as “the Pds1 accumulated in these lower molecular weight species”. Besides, the Hill coefficient under setting [1] amounted to 7.3 ± 2.6. Further, the Hill coefficient (MCC subunits, 4-parameter Hill fit, ± sd, listed as Mad3-Bub3) came out at 7.3. The half-inhibitory concentration (IC50) under setting [2] stood at 0.089 ± 0.004 µM. Besides, the Hill coefficient (Mad3-Bub3 complex in the presence of 0.5 μM Mad2, ± sd) worked out at 8.2 ±1.9. Where the note is “Mad3-Bub3 complex in the presence of 0.5 μM Mad2, ± sd, three independent titrations, read-out: IC50”, the half-maximal inhibitory concentration (IC50) is 0.07 ± 0.003 µM.
